9 sequences from the supplement of paper PMC10065799, “High-throughput profiling of sequence recognition by tyrosine kinases and SH2 domains using bacterial peptide display” (eLife, 2023) can be followed below.

For one data set, the system named is c-Src. Put plainly: phosphorylation enrichment, bacterial display (enrichment ratio); higher = better substrate or ligand; peptides without Tyr show the background.
The target in a further data set is Fyn (UniProt P06241). The data set is described as above.
Sequence of Fyn (P06241 whole entry, looked up): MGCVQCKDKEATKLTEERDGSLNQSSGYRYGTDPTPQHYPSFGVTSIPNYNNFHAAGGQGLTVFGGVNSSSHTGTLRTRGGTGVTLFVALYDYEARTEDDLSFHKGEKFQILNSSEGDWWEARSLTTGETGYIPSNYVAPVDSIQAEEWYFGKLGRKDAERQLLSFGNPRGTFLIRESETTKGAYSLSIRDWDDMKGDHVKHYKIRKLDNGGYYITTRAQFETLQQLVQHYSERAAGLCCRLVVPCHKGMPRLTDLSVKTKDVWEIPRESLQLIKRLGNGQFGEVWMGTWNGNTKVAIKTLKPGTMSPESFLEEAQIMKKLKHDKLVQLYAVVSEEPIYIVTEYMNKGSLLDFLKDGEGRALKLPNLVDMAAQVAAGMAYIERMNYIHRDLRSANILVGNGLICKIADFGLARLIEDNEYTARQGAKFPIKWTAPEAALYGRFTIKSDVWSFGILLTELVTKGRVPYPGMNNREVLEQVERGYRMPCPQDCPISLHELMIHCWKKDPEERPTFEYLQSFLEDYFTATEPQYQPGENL
A further data set has as its target EPHB1 (UniProt P54762). Described as above.
Another data set addresses MERTK (UniProt Q12866). Described as above.
For a further data set, the target named is Jak2 (UniProt O60674). The data set is described as above.
Another data set has as its target EPHB2 (UniProt P29323). The description is as above.
Another data set concerns AncSZ. The data set is described as above.
The target of the next data set is Hck (UniProt P08631). The description is as above.
Sequence of Hck (P08631 whole entry, looked up): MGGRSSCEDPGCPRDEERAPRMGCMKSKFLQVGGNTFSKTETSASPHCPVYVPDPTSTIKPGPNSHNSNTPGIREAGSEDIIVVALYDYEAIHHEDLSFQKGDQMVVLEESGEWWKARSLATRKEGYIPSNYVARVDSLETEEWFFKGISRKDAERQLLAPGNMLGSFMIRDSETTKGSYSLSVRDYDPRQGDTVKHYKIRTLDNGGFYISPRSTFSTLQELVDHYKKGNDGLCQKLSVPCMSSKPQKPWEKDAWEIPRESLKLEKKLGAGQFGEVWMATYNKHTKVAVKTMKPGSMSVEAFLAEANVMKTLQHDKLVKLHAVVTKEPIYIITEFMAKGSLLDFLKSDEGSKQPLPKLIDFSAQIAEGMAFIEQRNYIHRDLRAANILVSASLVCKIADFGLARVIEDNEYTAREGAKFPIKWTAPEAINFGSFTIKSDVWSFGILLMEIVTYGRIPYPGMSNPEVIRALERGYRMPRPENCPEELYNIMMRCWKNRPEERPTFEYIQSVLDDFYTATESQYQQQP
The next data set deals with Fer (mouse). The data set is described as above.
A further data set has as its target Fes (UniProt P07332). Described as above.
For another data set, the system named is c-Abl (mouse). Described as above.
For another data set, the target named is FGFR3 (UniProt P22607). Described as above.
The target in a further data set is FGFR1 (UniProt P11362). Described as above.
Sequence of FGFR1 (P11362 whole entry, looked up): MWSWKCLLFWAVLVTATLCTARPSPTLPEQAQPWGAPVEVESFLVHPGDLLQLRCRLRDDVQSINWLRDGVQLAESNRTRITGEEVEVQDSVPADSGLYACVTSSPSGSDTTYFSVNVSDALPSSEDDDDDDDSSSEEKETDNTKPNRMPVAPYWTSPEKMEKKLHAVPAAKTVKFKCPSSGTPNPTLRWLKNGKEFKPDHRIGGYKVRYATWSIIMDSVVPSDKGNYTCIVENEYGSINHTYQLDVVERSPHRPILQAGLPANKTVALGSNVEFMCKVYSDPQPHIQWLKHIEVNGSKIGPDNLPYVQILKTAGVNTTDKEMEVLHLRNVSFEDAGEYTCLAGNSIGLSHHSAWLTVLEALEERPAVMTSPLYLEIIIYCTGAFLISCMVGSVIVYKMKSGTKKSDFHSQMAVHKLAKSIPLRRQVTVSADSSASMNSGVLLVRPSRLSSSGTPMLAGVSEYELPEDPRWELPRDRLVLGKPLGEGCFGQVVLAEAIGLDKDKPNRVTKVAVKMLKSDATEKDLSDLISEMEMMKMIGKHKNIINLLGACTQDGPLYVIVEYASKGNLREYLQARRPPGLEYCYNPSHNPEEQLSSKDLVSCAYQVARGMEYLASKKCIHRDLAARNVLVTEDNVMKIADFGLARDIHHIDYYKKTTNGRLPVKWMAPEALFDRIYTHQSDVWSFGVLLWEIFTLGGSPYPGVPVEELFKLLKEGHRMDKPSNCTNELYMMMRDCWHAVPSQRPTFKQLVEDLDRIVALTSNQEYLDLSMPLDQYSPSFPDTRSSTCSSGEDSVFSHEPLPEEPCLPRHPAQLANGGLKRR
For the next data set, the target named is c-Src SH2. As to the kind of experiment: SH2 binding enrichment of the phosphorylated peptide, bacterial display (enrichment ratio); higher = better substrate or ligand; peptides without Tyr show the background.
A further data set deals with SHP2-C SH2. The data set is described as above.
The target of another data set is Grb2 SH2 (UniProt P62993). Described as above.
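Throughout, for SH2 binding enrichment of the phosphorylated peptide, bacterial display: peptide library displayed on the E. coli surface as eCPX fusions, selected cells deep-sequenced, score is each peptide's frequency after selection divided by its frequency in the input.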
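Throughout, for phosphorylation enrichment, bacterial display: 11-residue human phosphosite peptides and single-mutation variants displayed on the E. coli surface, counted by deep sequencing, each peptide's frequency after selection divided by its frequency in the unselected input library; frequency after pTyr selection over input frequency; kinase dosed for 20-30% of maximal phosphorylation in three min.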

Sequence of EPHB2 (P29323 whole entry, looked up): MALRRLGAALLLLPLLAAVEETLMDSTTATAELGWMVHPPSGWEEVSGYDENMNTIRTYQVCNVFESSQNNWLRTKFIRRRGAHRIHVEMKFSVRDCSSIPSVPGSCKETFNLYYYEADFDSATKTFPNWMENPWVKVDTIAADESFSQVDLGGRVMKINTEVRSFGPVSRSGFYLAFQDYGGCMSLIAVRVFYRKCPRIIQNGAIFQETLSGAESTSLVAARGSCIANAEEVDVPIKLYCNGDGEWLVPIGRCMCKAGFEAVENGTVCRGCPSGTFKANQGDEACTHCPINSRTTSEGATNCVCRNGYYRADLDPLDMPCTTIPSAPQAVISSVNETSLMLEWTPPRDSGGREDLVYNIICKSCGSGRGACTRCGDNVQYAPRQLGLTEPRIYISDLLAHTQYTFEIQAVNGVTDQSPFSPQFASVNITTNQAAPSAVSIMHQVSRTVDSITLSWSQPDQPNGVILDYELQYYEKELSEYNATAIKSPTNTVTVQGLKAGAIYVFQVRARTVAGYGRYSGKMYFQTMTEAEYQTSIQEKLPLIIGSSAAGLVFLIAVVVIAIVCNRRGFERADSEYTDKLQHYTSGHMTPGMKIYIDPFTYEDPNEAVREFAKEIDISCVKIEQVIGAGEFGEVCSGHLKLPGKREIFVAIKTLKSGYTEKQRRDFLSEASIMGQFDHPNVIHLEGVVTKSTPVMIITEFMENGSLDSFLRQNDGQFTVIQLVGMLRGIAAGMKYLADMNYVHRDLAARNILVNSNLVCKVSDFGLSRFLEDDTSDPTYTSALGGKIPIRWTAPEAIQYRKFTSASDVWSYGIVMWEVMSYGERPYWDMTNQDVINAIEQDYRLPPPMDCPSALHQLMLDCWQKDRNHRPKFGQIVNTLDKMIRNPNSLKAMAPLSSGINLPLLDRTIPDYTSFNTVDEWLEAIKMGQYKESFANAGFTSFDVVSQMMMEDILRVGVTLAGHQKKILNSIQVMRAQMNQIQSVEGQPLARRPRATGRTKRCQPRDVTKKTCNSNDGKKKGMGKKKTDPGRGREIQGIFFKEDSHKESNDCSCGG
Sequence of EPHB1 (P54762 whole entry, looked up): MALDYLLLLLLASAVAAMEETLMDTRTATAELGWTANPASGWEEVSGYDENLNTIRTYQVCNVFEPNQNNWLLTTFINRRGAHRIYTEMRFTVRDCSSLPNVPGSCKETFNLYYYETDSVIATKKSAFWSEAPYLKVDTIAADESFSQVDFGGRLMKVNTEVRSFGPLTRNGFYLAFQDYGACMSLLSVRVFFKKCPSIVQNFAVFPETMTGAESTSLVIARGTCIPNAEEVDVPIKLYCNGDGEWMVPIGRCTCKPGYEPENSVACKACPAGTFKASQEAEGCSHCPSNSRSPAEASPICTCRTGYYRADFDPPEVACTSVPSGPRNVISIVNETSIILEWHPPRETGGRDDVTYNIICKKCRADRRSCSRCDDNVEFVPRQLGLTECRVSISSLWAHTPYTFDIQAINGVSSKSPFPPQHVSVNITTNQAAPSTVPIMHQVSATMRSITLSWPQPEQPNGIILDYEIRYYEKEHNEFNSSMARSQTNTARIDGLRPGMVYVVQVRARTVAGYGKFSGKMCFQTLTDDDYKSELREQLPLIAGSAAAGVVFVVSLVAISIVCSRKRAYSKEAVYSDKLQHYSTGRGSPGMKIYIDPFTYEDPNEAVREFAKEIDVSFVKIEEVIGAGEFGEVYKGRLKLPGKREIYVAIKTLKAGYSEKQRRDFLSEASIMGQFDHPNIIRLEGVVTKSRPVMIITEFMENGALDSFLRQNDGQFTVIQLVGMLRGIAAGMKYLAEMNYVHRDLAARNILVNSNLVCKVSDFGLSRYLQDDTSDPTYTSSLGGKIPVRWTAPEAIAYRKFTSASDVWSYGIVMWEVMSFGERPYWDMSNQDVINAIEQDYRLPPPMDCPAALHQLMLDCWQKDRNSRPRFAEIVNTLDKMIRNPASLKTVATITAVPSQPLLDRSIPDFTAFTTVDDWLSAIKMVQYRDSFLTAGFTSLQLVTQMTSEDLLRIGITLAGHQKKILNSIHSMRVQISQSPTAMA
Sequence of MERTK (Q12866 whole entry, looked up): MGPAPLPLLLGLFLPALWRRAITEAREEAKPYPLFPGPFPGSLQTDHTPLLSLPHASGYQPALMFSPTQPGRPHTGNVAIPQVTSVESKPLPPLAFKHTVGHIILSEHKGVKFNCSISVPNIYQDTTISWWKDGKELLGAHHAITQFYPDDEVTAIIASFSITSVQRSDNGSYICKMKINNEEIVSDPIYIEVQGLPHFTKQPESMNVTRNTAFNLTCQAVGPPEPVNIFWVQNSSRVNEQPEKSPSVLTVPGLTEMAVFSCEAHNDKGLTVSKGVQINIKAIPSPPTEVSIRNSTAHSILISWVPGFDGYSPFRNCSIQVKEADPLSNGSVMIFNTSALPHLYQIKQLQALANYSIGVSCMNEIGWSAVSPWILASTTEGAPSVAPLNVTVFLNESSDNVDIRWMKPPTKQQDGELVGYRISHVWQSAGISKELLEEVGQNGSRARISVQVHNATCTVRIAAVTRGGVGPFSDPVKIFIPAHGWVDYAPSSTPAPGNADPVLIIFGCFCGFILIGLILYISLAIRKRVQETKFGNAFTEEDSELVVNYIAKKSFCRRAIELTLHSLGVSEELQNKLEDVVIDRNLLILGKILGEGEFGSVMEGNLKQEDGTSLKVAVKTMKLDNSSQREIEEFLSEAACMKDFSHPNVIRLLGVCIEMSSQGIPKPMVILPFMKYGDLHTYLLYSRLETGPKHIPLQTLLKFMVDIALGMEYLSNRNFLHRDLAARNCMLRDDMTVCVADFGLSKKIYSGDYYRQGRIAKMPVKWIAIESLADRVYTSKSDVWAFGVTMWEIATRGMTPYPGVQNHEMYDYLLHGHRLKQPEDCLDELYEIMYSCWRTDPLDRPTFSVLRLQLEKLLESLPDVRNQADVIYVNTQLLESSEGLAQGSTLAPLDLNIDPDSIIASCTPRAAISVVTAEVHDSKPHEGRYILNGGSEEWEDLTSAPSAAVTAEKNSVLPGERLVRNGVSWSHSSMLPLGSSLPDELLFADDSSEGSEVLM

As for WQQQSYLDFGI [CTNNB1_Y30_S33F], the phosphorylation enrichment with c-Src was 0.544; with Fyn it was 0.524; with EPHB1, 0.635; in the data set with MERTK, 0.418; with Jak2, 0.974; with EPHB2, 0.564. The phosphorylation enrichment in the data set on AncSZ amounted to 0.883; with Hck, 0.441; with Fer (mouse) it was 0.39; in the data set with Fes, 1.04; in the data set with c-Abl (mouse), 0.658; in the data set with FGFR3, 0.757. Moreover, the phosphorylation enrichment with FGFR1 came out at 0.816. Further, the SH2 binding enrichment with c-Src SH2 is 0.592; in the data set with SHP2-C SH2, 0.776; with Grb2 SH2 it was 0.999.

In the case of WQQQSYLDSGS [CTNNB1_Y30_I35S], the phosphorylation enrichment was found to be 0.363 in the data set on c-Src; 0.423 with Fyn; 0.436 with EPHB1; 0.397 in the data set with MERTK; 0.581 with Jak2; 0.528 with EPHB2. Further, the phosphorylation enrichment is 0.781 with AncSZ; 0.45 with Hck; 0.675 with Fer (mouse); 0.741 with Fes; 0.56 with c-Abl (mouse); 0.536 in the data set with FGFR3. The phosphorylation enrichment with FGFR1 turned out to be 0.561. Moreover, the SH2 binding enrichment in the data set with c-Src SH2 is 0.481; with SHP2-C SH2, 0.582; with Grb2 SH2 it was 0.733.

Regarding WRPFGYPRCRR [BCS1L_Y181_R184C], the phosphorylation enrichment in the data set with c-Src came out at 0.528; with Fyn, 0.498; in the data set with EPHB1 it was 0.444; in the data set with MERTK, 0.505; with Jak2 it was 0.485; with EPHB2 it was 0.478. The phosphorylation enrichment in the data set with AncSZ worked out at 0.599; in the data set with Hck, 0.454; with Fer (mouse), 0.447; with Fes it was 0.509; with c-Abl (mouse) it was 0.403; with FGFR3, 0.459. Moreover, the phosphorylation enrichment in the data set with FGFR1 came out at 0.505. In addition, the SH2 binding enrichment with c-Src SH2 was determined as 0.459; with SHP2-C SH2 it was 0.39; in the data set with Grb2 SH2, 0.714.

Regarding WRVIGYHVVVW [ATP13A2_Y50], the phosphorylation enrichment in the data set with c-Src stood at 0.501; with Fyn it was 0.444; with EPHB1, 0.695; with MERTK, 0.417; in the data set with Jak2, 1.19; in the data set with EPHB2, 0.692. Besides, the phosphorylation enrichment is 1.21 in the data set with AncSZ; 0.568 in the data set with Hck; 0.587 with Fer (mouse); 1.25 with Fes; 0.903 in the data set on c-Abl (mouse); 0.828 with FGFR3. In the data set with FGFR1, the phosphorylation enrichment is 0.551. The SH2 binding enrichment with c-Src SH2 came to 0.727; in the data set with SHP2-C SH2 it was 0.915; with Grb2 SH2 it was 1.08.

As for WVFNHYRWFIW [BRCA2_Y2624_I2627F_YF], the phosphorylation enrichment is 0.409 in the data set on c-Src; 0.462 with Fyn; 0.654 in the data set with EPHB1; 0.463 with MERTK; 1.25 with Jak2; 0.636 in the data set with EPHB2. Also, the phosphorylation enrichment in the data set with AncSZ came out at 1.13; with Hck it was 0.482; in the data set with Fer (mouse), 0.575; in the data set with Fes, 1.32; with c-Abl (mouse), 0.898; with FGFR3, 0.813. The phosphorylation enrichment with FGFR1 was determined as 0.49. For the same sequence, the SH2 binding enrichment with c-Src SH2 was found to be 0.587; with SHP2-C SH2, 0.693; in the data set with Grb2 SH2, 0.941.

For YAANYYKLLGN [ROR2_Y646_D644N], the phosphorylation enrichment with c-Src amounted to 0.462; with Fyn, 0.46; with EPHB1, 0.566; in the data set with MERTK it was 0.832; with Jak2, 0.917; in the data set with EPHB2, 0.546. Moreover, the phosphorylation enrichment was 0.566 with AncSZ; 0.406 with Hck; 0.506 in the data set on Fer (mouse); 0.609 in the data set with Fes; 0.579 in the data set with c-Abl (mouse); 1.35 in the data set with FGFR3. Besides, in the data set with FGFR1, the phosphorylation enrichment is 1.76. In addition, the SH2 binding enrichment with c-Src SH2 was determined as 0.501; with SHP2-C SH2 it was 0.685; in the data set with Grb2 SH2, 0.872.

As for YADPYYDYEIE [ZC3H18_Y372], the phosphorylation enrichment in the data set with c-Src came out at 3.01; in the data set with Fyn, 2.52; with EPHB1 it was 2.05; with MERTK it was 2.18; with Jak2 it was 1.24; in the data set with EPHB2, 1.94. Besides, the phosphorylation enrichment in the data set with AncSZ worked out at 1.95; with Hck, 1.06; in the data set with Fer (mouse), 1.58; with Fes it was 1.31; with c-Abl (mouse) it was 0.853; with FGFR3 it was 7.39. Besides, the phosphorylation enrichment in the data set with FGFR1 is 9.62. The SH2 binding enrichment with c-Src SH2 was 2.04; in the data set with SHP2-C SH2 it was 0.545; in the data set with Grb2 SH2, 0.787.

YDGKDYIALKE [HLA-A_Y147_N151K]: the phosphorylation enrichment turned out to be 0.377 with c-Src; 0.493 in the data set with Fyn; 0.669 in the data set with EPHB1; 0.439 in the data set with MERTK; 1.03 with Jak2; 0.648 in the data set with EPHB2. In addition, the phosphorylation enrichment in the data set on AncSZ was determined as 1.12; with Hck, 0.49; in the data set with Fer (mouse), 0.49; with Fes it was 0.913; in the data set with c-Abl (mouse), 0.72; in the data set with FGFR3, 0.739. In the data set with FGFR1, the phosphorylation enrichment stood at 0.702. In addition, the SH2 binding enrichment in the data set with c-Src SH2 came out at 0.495; in the data set with SHP2-C SH2 it was 0.648; with Grb2 SH2 it was 0.891.

For the sequence YDKEYYSVHNK [MET_Y1235], the phosphorylation enrichment in the data set with c-Src was found to be 0.881; with Fyn it was 0.455; in the data set with EPHB1, 0.542; with MERTK it was 0.441; with Jak2 it was 1.01; in the data set with EPHB2, 0.428. Moreover, the phosphorylation enrichment is 1.36 in the data set with AncSZ; 0.922 with Hck; 0.425 in the data set with Fer (mouse); 0.754 with Fes; 0.684 with c-Abl (mouse); 2.95 in the data set with FGFR3. The phosphorylation enrichment in the data set with FGFR1 is 4.29. In addition, the SH2 binding enrichment with c-Src SH2 came to 0.478; in the data set with SHP2-C SH2 it was 0.399; with Grb2 SH2, 0.759.
